Ten molecules from paper PMC5182127, “Cellular and viral peptides bind multiple sites on the N‐terminal domain of clathrin” (Traffic (Copenhagen, Denmark), 2016) can be followed below.

Details in all cases: both partners purified
The target in assay [1] is T1, clathrin heavy chain N‐terminal domain (1‐363) (bovine, UniProt P49951 1-363).
T1 construct: also called NTD; clathrin NTD; source: E. coli BL21(DE3) pLysS, purified (glutathione Sepharose, thrombin cleavage, Superdex 200); not shown: GST, N-terminal, cleaved
T1 sequence (looked up): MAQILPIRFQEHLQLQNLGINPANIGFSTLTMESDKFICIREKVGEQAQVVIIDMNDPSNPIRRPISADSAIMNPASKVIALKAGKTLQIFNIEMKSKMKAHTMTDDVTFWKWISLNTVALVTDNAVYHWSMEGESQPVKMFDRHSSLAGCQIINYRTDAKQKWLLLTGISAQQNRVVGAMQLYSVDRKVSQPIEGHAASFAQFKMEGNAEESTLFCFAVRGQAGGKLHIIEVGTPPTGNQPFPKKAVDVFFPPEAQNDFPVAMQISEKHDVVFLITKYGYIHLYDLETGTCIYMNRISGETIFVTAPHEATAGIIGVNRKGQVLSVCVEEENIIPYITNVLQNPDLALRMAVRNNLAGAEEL
Description: crystal structure; co-crystals of NTD (14 or 20 mg/mL) with 3.4-3.6 mM peptide, sitting drop, 20°C, sodium malonate; peptide also in the cryoprotectant.

Assay [2] deals with T2, GST‐Amph4T1 (rat, UniProt O08838 349-356).
T2 construct: also called extended amphiphysin CBM construct; source: E. coli BL21(DE3) pLysS, purified (glutathione resin, SEC)
T2 chain: ETLLDLDFLERPHRD
As to the kind of experiment: pull-down; 500 µg GST or GST-peptide bait on glutathione sepharose 4B; 0.1 mg/mL wild-type or mutant His-NTD-NEMO as prey, 2 h, 4°C; 25 mM HEPES-KOH, 125 mM potassium acetate, 5 mM magnesium acetate, 2 mM EDTA, 2 mM EGTA, 1 mM DTT, pH 7.2; washes with PBS; immunoblot with anti-clathrin NTD antibody. For orientation: Immunoblotting shows a protein as a band on a membrane.

For assay [3], the target named is T3, GST‐AP2CBM (human, UniProt P63010 629-640).
T3 construct: also called CBM from flexible hinge of β2 adaptin subunit of human AP2; source: E. coli BL21(DE3) pLysS, purified (glutathione resin, SEC); not shown: GST, N-terminal, kept
T3 chain (looked up): GDLLNLDLGPPV
Described as above.

Assay [4] has as its target T4, GST‐AmphCBM (human, UniProt P49418 349-358).
T4 construct: also called human amphiphysin I CBM; source: E. coli BL21(DE3) pLysS, purified (glutathione resin, SEC); not shown: GST, N-terminal, kept
T4 chain (looked up): ETLLDLDFDP
The description is as above.

In assay [5] the target is T5, GST‐AP2arrS (human, UniProt P63010 623-632).
T5 construct: also called extended arrestin motif (LLGDLL); source: E. coli BL21(DE3) pLysS, purified (glutathione resin, SEC); not shown: GST, N-terminal, kept
T5 chain (looked up): SQGDLLGDLL
The assay is described as above.

B1: HDAg‐L2pep (peptide)
peptide: SPRLPLLES
notes: also called peptide of the putative CBM of HDAg-L2; source: synthetic peptide, bought: Designer Bioscience
Regarding B1, the binding result in assay [1] was “binds”.

B2: HDAg‐L1pep (peptide)
peptide: SDILFPADS
notes: also called peptide of the putative CBM of HDAg-L1; source: synthetic peptide, bought: Designer Bioscience
Consider B2, for which, in assay [1], the binding result is recorded as “binds”.

B3: AP2CBMpep (peptide)
peptide: CGDLLNLDLG
notes: also called peptide of the β2 adaptin CBM; source: synthetic peptide, bought: Designer Bioscience
Regarding B3, the binding result in assay [1] is “binds”.

B4: His‐NTD‐NEMO Q89A + F91K (other, UniProt P49951 1-363, looked up)
chain: MAQILPIRFQEHLQLQNLGINPANIGFSTLTMESDKFICIREKVGEQAQVVIIDMNDPSNPIRRPISADSAIMNPASKVIALKAGKTLAIKNIEMKSKMKAHTMTDDVTFWKWISLNTVALVTDNAVYHWSMEGESQPVKMFDRHSSLAGCQIINYRTDAKQKWLLLTGISAQQNRVVGAMQLYSVDRKVSQPIEGHAASFAQFKMEGNAEESTLFCFAVRGQAGGKLHIIEVGTPPTGNQPFPKKAVDVFFPPEAQNDFPVAMQISEKHDVVFLITKYGYIHLYDLETGTCIYMNRISGETIFVTAPHEATAGIIGVNRKGQVLSVCVEEENIIPYITNVLQNPDLALRMAVRNNLAGAEELKSSVVGSERKRGMQLEDLKQQLQQAEEALVAKQEVIDKLKEEAEQHKIVMETVPVLKAQADIYKADFQAERQAREKLAEKKELLQEQLEQLQREYSKLKASCQESARIEDMRKRHVEVSQ
notes: also called clathrin box mutant; not shown: His6, N-terminal, kept
For the molecule B4, the binding result in assay [2], in assay [3] and in assay [4] was “binds” in each case.

B5: His‐NTD‐NEMO Q192Y (other, UniProt P49951 1-363, looked up)
chain: MAQILPIRFQEHLQLQNLGINPANIGFSTLTMESDKFICIREKVGEQAQVVIIDMNDPSNPIRRPISADSAIMNPASKVIALKAGKTLQIFNIEMKSKMKAHTMTDDVTFWKWISLNTVALVTDNAVYHWSMEGESQPVKMFDRHSSLAGCQIINYRTDAKQKWLLLTGISAQQNRVVGAMQLYSVDRKVSYPIEGHAASFAQFKMEGNAEESTLFCFAVRGQAGGKLHIIEVGTPPTGNQPFPKKAVDVFFPPEAQNDFPVAMQISEKHDVVFLITKYGYIHLYDLETGTCIYMNRISGETIFVTAPHEATAGIIGVNRKGQVLSVCVEEENIIPYITNVLQNPDLALRMAVRNNLAGAEELKSSVVGSERKRGMQLEDLKQQLQQAEEALVAKQEVIDKLKEEAEQHKIVMETVPVLKAQADIYKADFQAERQAREKLAEKKELLQEQLEQLQREYSKLKASCQESARIEDMRKRHVEVSQ
notes: also called arrestin box mutant; not shown: His6, N-terminal, kept
On to B5, for which the binding result in assay [2], in assay [3] and in assay [4] was “binds” throughout.

B6: His‐NTD‐NEMO Q89A + F91K + F9W (other, UniProt P49951 1-363, looked up)
chain: MAQILPIRWQEHLQLQNLGINPANIGFSTLTMESDKFICIREKVGEQAQVVIIDMNDPSNPIRRPISADSAIMNPASKVIALKAGKTLAIKNIEMKSKMKAHTMTDDVTFWKWISLNTVALVTDNAVYHWSMEGESQPVKMFDRHSSLAGCQIINYRTDAKQKWLLLTGISAQQNRVVGAMQLYSVDRKVSQPIEGHAASFAQFKMEGNAEESTLFCFAVRGQAGGKLHIIEVGTPPTGNQPFPKKAVDVFFPPEAQNDFPVAMQISEKHDVVFLITKYGYIHLYDLETGTCIYMNRISGETIFVTAPHEATAGIIGVNRKGQVLSVCVEEENIIPYITNVLQNPDLALRMAVRNNLAGAEELKSSVVGSERKRGMQLEDLKQQLQQAEEALVAKQEVIDKLKEEAEQHKIVMETVPVLKAQADIYKADFQAERQAREKLAEKKELLQEQLEQLQREYSKLKASCQESARIEDMRKRHVEVSQ
notes: also called mutant with disrupted clathrin and Royle boxes; printed in the text as Q98A + F91K + F9W; not shown: His6, N-terminal, kept
Regarding B6, the binding result in assay [5], in assay [2] and in assay [3] was “binds” in each case.

B7: His‐NTD‐NEMO Q89A + F91K + Q192Y (other, UniProt P49951 1-363, looked up)
chain: MAQILPIRFQEHLQLQNLGINPANIGFSTLTMESDKFICIREKVGEQAQVVIIDMNDPSNPIRRPISADSAIMNPASKVIALKAGKTLAIKNIEMKSKMKAHTMTDDVTFWKWISLNTVALVTDNAVYHWSMEGESQPVKMFDRHSSLAGCQIINYRTDAKQKWLLLTGISAQQNRVVGAMQLYSVDRKVSYPIEGHAASFAQFKMEGNAEESTLFCFAVRGQAGGKLHIIEVGTPPTGNQPFPKKAVDVFFPPEAQNDFPVAMQISEKHDVVFLITKYGYIHLYDLETGTCIYMNRISGETIFVTAPHEATAGIIGVNRKGQVLSVCVEEENIIPYITNVLQNPDLALRMAVRNNLAGAEELKSSVVGSERKRGMQLEDLKQQLQQAEEALVAKQEVIDKLKEEAEQHKIVMETVPVLKAQADIYKADFQAERQAREKLAEKKELLQEQLEQLQREYSKLKASCQESARIEDMRKRHVEVSQ
notes: also called His‐NTD‐NEMO mutated at both the clathrin and arrestin boxes; not shown: His6, N-terminal, kept
As to B7, the binding result in assay [2] and in assay [4] was “binds” each time.

B8: Amph4T1pep (peptide)
peptide: ETLLDLDFLE
notes: source: synthetic peptide, bought: Genscript
As for B8, the binding result in assay [1] is recorded as “binds”.

B9: AmphCBMpep (peptide)
peptide: ETLLDLDFDP
notes: also called peptide of the amphiphysin CBM; source: synthetic peptide, bought: Genscript
Consider B9, for which the binding result in assay [1] was “binds”.

B10: AmphCBMlongpep (peptide)
peptide: ETLLDLDFDPFK
notes: as for B8
Consider B10, for which the binding result in assay [1] is given as “binds”.
